In publication PMC3737555, “Structural insights into the targeting of mRNA GU-rich elements by the three RRMs of CELF1”:

Columns and labels:
CELF1 RRM23 (Xenopus) = test: ITC; conditions: ITC: 25 mM potassium phosphate, 100 mM NaCl, pH 7.0, 25 C, 12.5 uM protein, 125 uM RNA in syringe; NMR: same buffer, 298 K, ~200-250 uM protein
CELF1 RRM123 [1] = target: T1, CELF1 RRM123 (Xenopus, UniProt O57406 1-214+385-489, internal_change); test: NMR PRE; strongest PRE in RRM3; ITC: 25 mM potassium phosphate, 100 mM NaCl, pH 7.0, 25 C, 12.5 uM protein, 125 uM RNA in syringe; NMR: same buffer, 298 K, ~200-250 uM protein; conditions: protein: recombinant; tags: N-terminal His; label: MTSL on 3' 4-thiouridine; single strand
[2] = target: CELF1 full-length wild type (Xenopus, UniProt O57406 1-489); test: NMR; extensive line broadening; ITC: 25 mM potassium phosphate, 100 mM NaCl, pH 7.0, 25 C, 12.5 uM protein, 125 uM RNA in syringe; NMR: same buffer, 298 K, ~200-250 uM protein; conditions: protein: recombinant, tags: N-terminal His
CELF1 RRM123 [3] = target: T1, CELF1 RRM123; test: ITC; n=0.85; ITC: 25 mM potassium phosphate, 100 mM NaCl, pH 7.0, 25 C, 12.5 uM protein, 125 uM RNA in syringe; NMR: same buffer, 298 K, ~200-250 uM protein; conditions: protein: recombinant; tags: N-terminal His; single strand
CELF1 RRM1 = CELF1 RRM1 (Xenopus, UniProt O57406 16-99); test: NMR PRE; ITC: 25 mM potassium phosphate, 100 mM NaCl, pH 7.0, 25 C, 12.5 uM protein, 125 uM RNA in syringe; NMR: same buffer, 298 K, ~200-250 uM protein; conditions: protein: recombinant; tags: His; label: MTSL on 5' 4-thiouridine; single strand
CELF1 RRM123 [4] = target: T1, CELF1 RRM123; test: ITC; n=1.19; text gives 1.50 +/- 0.28; ITC: 25 mM potassium phosphate, 100 mM NaCl, pH 7.0, 25 C, 12.5 uM protein, 125 uM RNA in syringe; NMR: same buffer, 298 K, ~200-250 uM protein; conditions: protein: recombinant; tags: N-terminal His; single strand
CELF1 RRM123 [5] = target: T1, CELF1 RRM123; test: NMR PRE; strongest PRE in RRM2; ITC: 25 mM potassium phosphate, 100 mM NaCl, pH 7.0, 25 C, 12.5 uM protein, 125 uM RNA in syringe; NMR: same buffer, 298 K, ~200-250 uM protein; conditions: protein: recombinant; tags: N-terminal His; label: MTSL on 5' 4-thiouridine; single strand
CELF1 RRM123 [6] = target: T1, CELF1 RRM123; test: ITC; n=1.64; ITC: 25 mM potassium phosphate, 100 mM NaCl, pH 7.0, 25 C, 12.5 uM protein, 125 uM RNA in syringe; NMR: same buffer, 298 K, ~200-250 uM protein; conditions: protein: recombinant; tags: N-terminal His; single strand
CELF1 RRM123 [7] = target: T1, CELF1 RRM123; test: ITC; n=1.45; ITC: 25 mM potassium phosphate, 100 mM NaCl, pH 7.0, 25 C, 12.5 uM protein, 125 uM RNA in syringe; NMR: same buffer, 298 K, ~200-250 uM protein; conditions: protein: recombinant; tags: N-terminal His; single strand
CELF1 RRM123 [8] = target: T1, CELF1 RRM123; test: ITC; n=0.83; ITC: 25 mM potassium phosphate, 100 mM NaCl, pH 7.0, 25 C, 12.5 uM protein, 125 uM RNA in syringe; NMR: same buffer, 298 K, ~200-250 uM protein; conditions: protein: recombinant; tags: N-terminal His; hairpin, 4 bp stem, single-stranded 5' and 3' tails
CELF1 RRM123 [9] = target: T1, CELF1 RRM123; test: ITC; n=0.79; ITC: 25 mM potassium phosphate, 100 mM NaCl, pH 7.0, 25 C, 12.5 uM protein, 125 uM RNA in syringe; NMR: same buffer, 298 K, ~200-250 uM protein; conditions: protein: recombinant; tags: N-terminal His; single strand
CELF1 RRM123 [10] = target: T1, CELF1 RRM123; test: ITC; n=0.67; ITC: 25 mM potassium phosphate, 100 mM NaCl, pH 7.0, 25 C, 12.5 uM protein, 125 uM RNA in syringe; NMR: same buffer, 298 K, ~200-250 uM protein; conditions: protein: recombinant; tags: N-terminal His; single strand

T1 sequence (O57406 other isoform, or with tags, fused parts or gaps): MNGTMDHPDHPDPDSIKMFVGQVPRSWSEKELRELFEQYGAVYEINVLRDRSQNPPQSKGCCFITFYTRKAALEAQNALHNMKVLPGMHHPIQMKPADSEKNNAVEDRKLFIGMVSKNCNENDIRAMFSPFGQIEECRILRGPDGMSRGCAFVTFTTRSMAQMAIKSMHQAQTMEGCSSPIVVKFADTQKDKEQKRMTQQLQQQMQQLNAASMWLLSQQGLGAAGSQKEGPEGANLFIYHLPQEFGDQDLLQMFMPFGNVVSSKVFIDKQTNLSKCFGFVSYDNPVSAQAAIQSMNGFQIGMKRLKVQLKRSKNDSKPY
CELF1 full-length wild type, sequence (O57406 whole entry): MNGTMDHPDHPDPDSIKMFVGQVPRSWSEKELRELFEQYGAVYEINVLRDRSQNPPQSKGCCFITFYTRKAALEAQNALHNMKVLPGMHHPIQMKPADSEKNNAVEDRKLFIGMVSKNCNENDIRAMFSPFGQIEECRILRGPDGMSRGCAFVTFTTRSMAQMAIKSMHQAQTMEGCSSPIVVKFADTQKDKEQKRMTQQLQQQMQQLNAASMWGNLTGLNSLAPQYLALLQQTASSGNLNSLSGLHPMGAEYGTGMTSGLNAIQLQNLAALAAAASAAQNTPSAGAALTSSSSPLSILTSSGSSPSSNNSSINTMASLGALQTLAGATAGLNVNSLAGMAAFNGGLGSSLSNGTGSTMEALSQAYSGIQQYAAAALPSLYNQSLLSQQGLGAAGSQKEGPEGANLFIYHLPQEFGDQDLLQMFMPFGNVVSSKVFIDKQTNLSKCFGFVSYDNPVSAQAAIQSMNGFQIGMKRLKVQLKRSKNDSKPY
CELF1 RRM1, sequence (O57406 16-99): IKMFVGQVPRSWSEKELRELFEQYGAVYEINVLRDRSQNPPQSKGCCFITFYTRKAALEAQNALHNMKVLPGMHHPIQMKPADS

## RNA with UGU(U) site used with RRM23
CELF1 RRM23 (Xenopus)
  Kd: 520 nM

## UGUUUUGUUUUUUGUU (ssRNA, 3'-terminal 4-thiouridine (taken as an additional nucleotide; not explicit)) [3'-U* EDEN-2U/4U]
CELF1 RRM123 [1]
  binding result: binds

## UGUUUUGUUUUUUGU (ssRNA) [EDEN-2U/4U]
[2]; single strand
  binding result: binds
CELF1 RRM123 [3]
  Kd: 110 ± 20 nM

## UUGU (ssRNA, 5'-terminal 4-thiouridine) [5'-U*UGU]
CELF1 RRM1
  binding result: binds

## UGUUUUGUUUGU (ssRNA) [EDEN-2U/1U]
CELF1 RRM123 [4]
  Kd: 1490 ± 230 nM

## UUGUUUUGUUUUUUGU (ssRNA, additional 5'-terminal 4-thiouridine) [5'-U* EDEN-2U/4U]
CELF1 RRM123 [5]
  binding result: binds

## UGUUUUUUGU (ssRNA) [EDEN-4U]
CELF1 RRM123 [6]
  Kd: 2080 ± 400 nM

## UGUUUGUUUGU (ssRNA) [EDEN11 (GRE)]
CELF1 RRM123 [7]
  Kd: 2200 ± 300 nM

## UGUUUUGUUCCCGAGGACGGGUUGU (structured_RNA) [EDEN-2U/HL]
[2]; hairpin, 4 bp stem, single-stranded 5' and 3' tails
  binding result: binds
CELF1 RRM123 [8]
  Kd: 550 ± 80 nM

## UGUAUGUGUUGUUUUAUGU (ssRNA) [EDEN19]
CELF1 RRM123 [9]
  Kd: 330 ± 70 nM

## UGUUUUUUGUUUUGU (ssRNA) [EDEN-4U/2U]
CELF1 RRM123 [10]
  Kd: 980 ± 120 nM
